Patent US20150266963A1 (ARGEN X B V, published 2015)

Tests used:
[1] = biological target: T1, recombinant human CD70 (Flag-TNC-CD70) (human, UniProt P32970 39-193); assay: Biacore; recombinant human CD70 on CM5 chip; Fab injected
T1 construct: extracellular domain; Captured by anti-Flag mAb in ELISA; as 'recombinant human CD70' immobilised on Biacore CM5 chips; TNC is for trimerisation; also called recombinant CD70; human recombinant CD70; not shown: Flag tag and TNC trimerisation domain
T1 sequence (looked up): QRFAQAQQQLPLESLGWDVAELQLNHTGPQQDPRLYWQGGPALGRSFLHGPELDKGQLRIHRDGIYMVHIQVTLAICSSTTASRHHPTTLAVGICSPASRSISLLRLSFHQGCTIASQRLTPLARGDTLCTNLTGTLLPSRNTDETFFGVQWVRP
Description: Off-rates of the purified llama-derived anti-CD70 blocking Fabs were determined using the Biacore. Recombinant human CD70 was immobilized on a CM5 Biacore chip. The immobilization was performed in accordance with a method provided by Biacore and by using the NHS/EDC kit (Biacore AB): after activation of the chip, a solution of 50 μg/ml of recombinant CD70 in 10 mM acetate buffer with pH of 5 was prepared and 1 μl of this solution (50ng) was injected resulting in a surface density of approximately 1000 RU.
Fabs for the CD70 mAbs ARGX-110, MDX2H5 and SGN70 were prepared by […] digestion (SGN70 and MDX69A7 are described elsewhere herein, MDX2H5, also referred to as MDX1411, is described in WO2008/074004 FIGS. 1A and 1B). Fabs, at a concentration of approximately 100-400 μg/ml, were diluted 6-fold in hepes-buffered saline (0.1M Hepes, 1.5M NaCl, 30 mM EDTA, 0.5% v/v surfactant P20). They were injected (30 μl) and passed through the flow cells at a flow rate of 30 μl/min. After binding of the Fab to CD70, the off-rate was monitored for a period of 10 minutes. After the dissociation, the flow cell surfaces were regenerated by injecting 5 μl of 10 mM NaOH. Sometimes multiple injections of NaOH were needed to regenerate the surfaces depending on the affinity of the Fabs. Off-rate analysis was done by applying the BIAevaluation software. First, the sensogram of the blank runs were subtracted from those obtained with the coated flow cell. […] Moreover, the off-rate of CD27 for CD70 was determined as well.

[2] = biological target: T1, recombinant human CD70 (Flag-TNC-CD70); assay: Biacore; CD70 coated CM5 chip; Fab in periplasmic fraction
Description: Phage eluted from rounds 3, 4 and 5 of selection were transfected into TG1 and plated clonally; individual clones were picked randomly for further analysis. Periplasmic fractions containing Fabs were prepared from IPTG induced small scale cultures the off rate of each Fab was determined using a CD70 coated CM5 chip in a Biacore binding assay. Clones with Fab having off rates similar to that of 27B3 were sequenced.

B1: 59D10 Fab (Fab, V domains shown)
VH: EVQLVESGGGLVQPGGSLRLSCAASELSFSISEMTWVRQAPGKGLEWVSGISGVTGGSSTSYADSVKGRFTISRDNDKNTLYLQMNSLIPEDTAVYYCATTSGTYYFIPEYEYWGQGTQVTVSS
VL: QSVLTQPPSVSGSPGKTVTISCAGTSSDVGYGYYVSWYQQFPGMAPKLLIYDVNKRASGIADRFSGSKAGNTASLTISGLQSEDEADYYCASYRSSANAVFGGGTHLTVLG
notes: Llama-derived Fab
In the case of B1, the koff [1] is reported as 0.00139 s⁻¹.

B2: 41D12 Fab (Fab, V domains shown)
VH: EVQLVESGGGLVQPGGSLRLSCAASGFTFSVYYMNWVRQAPGKGLEWVSDINNEGGTTYYADSVKGRFTISRDNSKNSLYLQMNSLRAEDTAVYYCARDAGYSNHVPIFDSWGQGTLVTVSS
VL: QAVVTQEPSLTVSPGGTVTLTCGLKSGSVTSDNFPTWYQQTPGQAPRLLIYNTNTRHSGVPDRFSGSILGNKAALTITGAQADDEAEYFCALFISNPSVEFGGGTQLTVLG
notes: Germlined 27B3 Fab, periplasmic fraction
B2 gave a koff [2] of 0.00023 s⁻¹.

B3: 33D8 Fab (Fab, V domains shown)
VH: EVQLVESGGGLVQPGGSLRLSCAASGFTFSVYYMNWVRQAPGKGLEWVSDINNEGGTTYYADSVKGRFTISRDNAKNTLTLQMNSLKPEDTALYYCVRDAGYSNHVPIFDSWGQGTQVIVAS
VL: QSALTQPSTVSVSLGQTARITCRGDSLERYGTNWYQQKPGQAPVLVIYDDDSRPSGIPERFSGSSSGATAALTISGAQAEDEGDYYCQSADSSGNAVFGGGTHLTVLG
notes: Llama-derived Fab
In the case of B3, the koff [1] is reported as 0.00045 s⁻¹.

B4: 24E3 Fab (Fab, V domains shown)
VH: EVQLVESGGGLVQPGGSLRLSCAASGFTFSVYYMNWVRQAPGKGLEWVSDINNEGGTTYYADSVKGRFTISRDNAKNTLTLQMNSLKPEDTALYYCVRDAGYSNHVPIFDSWGQGTQVIVAS
VL: QAVVTQEPSLSVSPGGTVTLTCGLTSGSVTSDNFPVWYQQTPGQAPRLLIYTINSRHSGVPSRFSGSITGNKAILTITGAQPEDEADYYCALYLENFANEFGGGTRLTVLG
notes: Llama-derived Fab
Work on B4 yielded a koff [1] of 8e-05 s⁻¹.

B5: 35G2 Fab (Fab, V domains shown)
VH: EVQLVESGGGLVQPGGSLRLSCAASGFTFSVYYMNWVRQAPGKGLEWVSDINNEGGTTYYADSVKGRFTISRDNAKNTLYLQMNSLKPEDTAVYYCARDAGYSNHVPIFDSWGQGTLVTVSS
VL: QTVVTQEPSFSVSPGGTVTLTCGLKSGSVTSTNFPTWYQQTPGQAPRLLIYNTNSRHSGVPDRFSGSILGNKAALTITGAQADDEADYFCALFISNPSVEFGGGTQLTVLG
notes: as for B2
Binder B5 has a koff [2] of 0.00017 s⁻¹.

B6: 39C3 Fab (Fab, V domains shown)
VH: EVQLVASGGGLVQPGGSLRLSCAASGFTFSVYYMNWVRQAPGKGLEWVSDINNEGGTTYYADSVKGRFTISRDNSKNTLYLQMNSLRAEDTAVYYCARDAGYSNHVPIFDSWGQGTTVTVSS
VL: QAVVTQEPSFSVSPGGTVTLTCGLKSGSVTSDNFPTWYQQTPGQAPRLLIYNTNTRHSGVPSRFSGSILGNKAALTITGAQADDESDYYCALFISNPSVEFGGGTQLTVLG
notes: as for B2
With B6 the koff [2] was 0.00025 s⁻¹.

B7: 36G2 Fab (Fab, V domains shown)
VH: EVQLVESGGGLVQPGGSLRLSCAASGFTFSVYYMNWVRQAPGKGLEWVSDINNEGGTTYYADSVKGRFTISRDNAKNSLTLQMNSLRAEDTAVYYCVRDAGYSNHVPIFDSWGQGTQVTVSS
VL: QAVVTQEPSLTVSPGGTVTLTCGLKSGSVTSDNFPTWYQQTPGQAPRLLIYNTNTRHSGVPDRFSGSILGNKAALTITGAQPEDESDYYCALFISNPSVEFGGGTQLTVLG
notes: as for B2
B7 was tested, and the koff [2] was 0.00011 s⁻¹.

B8: 40F1 Fab (Fab, V domains shown)
VH: EVQLVESGGGLVQPGGSLRLSCAASGFTFSVYYMNWVRQAPGKGLEWVSDINNEGGATYYADSVKGRFTISRDNSKNSLYLQMNSLRAEDTAVYYCARDAGYSNHVPIFDSWGQGTQVTVSS
VL: QAVVTQEPSFSVSPGGTVTLTCGLKSGSVTSDNFPTWYQQTPGQAPRLLIYNTNTRHSGVPDRFSGSILGNKAALTITGAQADDEAEYFCALFISNPSVEFGGGTQLTVLG
notes: as for B2
In the case of B8, the koff [2] is reported as 0.00016 s⁻¹.

B9: 36A9 Fab (Fab, V domains shown)
VH: EVQLVESGGGLVQPGGSLRLSCAASGFTFSVYYMNWVRQAPGKGLEWVSDINNEGGTTYYADSVKGRFTISRDNSKNTLTLQMNSLKPEDTAVYYCVRDAGYSNHVPIFDSWGQGTQVIVSS
VL: QTVVTQEPSFSVSPGGTVTLTCGLKSGSVTSDNFPTWYQQTPGQAPRLLIYNTNTRHSGVPDRFSGSILGNKAALTITGAQADDESDYFCALFISNPSVEFGGGTQLTVLG
notes: as for B2
Binder B9 has a koff [2] of 0.00013 s⁻¹.

B10: 35G3 Fab (Fab, V domains shown)
VH: EVQLVESGGGLVQPGGSLRLSCAASGFTFSVYYMNWVRQAPGKGLEWVSDINNEGGTTYYADSVKGRFTISRDNSKNSLTLQMNSLKPEDTAVYYCARDAGYSNHVPIFDSWGQGTLVTVSS
VL: QAVVTQEPSFSVSPGGTVTLTCGLKSGSVTSDNFPTWYQQTPGQAPRLLIYNTNSRHSGVPDRFSGSILGNKAALTIRGAQADDEAEYYCALFISNPSVEFGGGTQLTVLG
notes: as for B2
For B10, the koff [2] was 0.00017 s⁻¹.

B11: 36D6 Fab (Fab, V domains shown)
VH: EVQLVESGGGLVQPGGSLRLSCAASGFTFSVYYMNWVRQAPGKGLEWVSDINNEGGTTYYADSVKGRFTISRDNAKNTLYLQMNSLKPEDTALYYCVRDAGYSNHVPIFDSWGQGTTVTVSS
VL: QTVVTQEPSLTVSPGGTVTLTCGLKSGSVTSTNFPTWYQQTPGQAPRLLIYNTNSRHSGVPDRFSGSILGNKAALTITGAQADDESDYFCALFISNPSVEFGGGTQLTVLG
notes: as for B2
With B11 the koff [2] was 0.00014 s⁻¹.

B12: 35G1 Fab (Fab, V domains shown)
VH: EVQLVESGGGLVQPGGSVRLSCAASGFTFSVYYMNWVRQAPGKGLEWVSDINNEGGTTYYADSVKGRFTISRDNAKNTLYLQMNSLKPEDTAVYYCARDAGYSNHVPIFDSWGQGTLVTVAS
VL: QTVVTQEPSFSVSPGGTVTLTCGLKSGSVTSDNFPTWYQQTPGQAPRLLIYNTNSRHSGVPDRFSGSILGNKAALTITGAQADDESDYFCALFISNPSVEFGGGTQLTVLG
notes: as for B2
B12 showed a koff [2] of 0.00023 s⁻¹.

B13: 8B12 Fab (Fab, V domains shown)
VH: EVQLVESGGGLVQPGGSLRLSCAASGFTFSVYYMNWVRQAPGKGLEWVSDINNEGDTTYYADSVKGRFTISRDNAKNTLTLQMDSLKPEDTALYYCVRDAGYSNHVPIFDSWGQGTQVIVAS
VL: QTVVTQEPSLSVSPGGTVTLTCGLSSGSVTSSNYPGWYQQTPGQAPRVLIYNTNNRHSGVPSRYSGSISGNKAALTITGAEPEDEADYYCNLHLGSYTPMFGGGTKLTVLG
notes: Llama-derived Fab
B13 was tested, and the koff [1] was 0.00036 s⁻¹.

B14: 45B12 Fab (Fab, V domains shown)
VH: EVQLVESGGGLVQPGGSLRLSCAASGFTFSAYYMNWVRQAPGKGLEWISDINNEGYETYYADSVKGRFTISRDNAKNTLTLQMDSLKPEDTARYYCVRDAGYSNHVQIFDSWGQGTQVIVAS
VL: QAVLTQPSSVSVSLGQTAKITCQGGNLGLYGANWYQQNPGRAPILLIYGDNYRPLGIPERFTISKSGGTATLTIDGAQAEDESDYYCQSADYSGNSVFGGGTKLTVLG
notes: Llama-derived Fab
Work on B14 yielded a koff [1] of 0.00021 s⁻¹.

B15: 45F8 Fab (Fab, V domains shown)
VH: EVQLVESGGGLVQPGGSLRLSCAASGFTFSAYYMNWVRQAPGKGLEWISDINNEGYETYYADSVKGRFTISRDNAKNTLTLQMDSLKPEDTARYYCVRDAGYSNHVQIFDSWGQGTQVIVAS
VL: QAVLTQPSSVSVSLGQTANITCQGGNLGLYGANWYQQNPGRAPILLFYGDNYMPLGIPERFTISKSGGTATLTIDGAQAENESDYYCQSSDYPGNSVFGGGTKLTVLG
notes: Llama-derived Fab
B15 showed a koff [1] of 0.0002 s⁻¹.

B16: 45D9 Fab (Fab, V domains shown)
VH: EVQLVESGGGLVQPGGSLRLSCAASGFTFSAYYMNWVRQAPGKGLEWISDINNEGYETYYADSVKGRFTISRDNAKNTLTLQMDSLKPEDTARYYCVRDAGYSNHVQIFDSWGQGTQVIVAS
VL: QAVLTQPSSVSVSLGQTAKITCQGGNLWLYGANWYQQNPGRAPILLIYGDNQRPLGIPERFTISKSGGTATLTIDGAQAEDESDYYCQSADYSGNSVFGGGTKLTVLG
notes: Llama-derived Fab
B16 was tested, and the koff [1] was 0.00021 s⁻¹.
